We go through 22 molecules from patent publication US20170088602A1 (Bristol-Myers Squibb, published 2017).

Numbering of substitutions follows the chain as printed.

T1: human Activin A (R&D Systems) (human, UniProt P08476 311-426)
T1 sequence (looked up): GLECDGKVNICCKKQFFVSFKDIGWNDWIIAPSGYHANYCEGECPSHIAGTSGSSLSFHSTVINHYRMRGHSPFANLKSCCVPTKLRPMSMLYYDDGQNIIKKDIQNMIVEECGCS

T2: human BMP-11 (GDF-11; R&D Systems) (human, UniProt O95390 299-407)
T2 sequence (looked up): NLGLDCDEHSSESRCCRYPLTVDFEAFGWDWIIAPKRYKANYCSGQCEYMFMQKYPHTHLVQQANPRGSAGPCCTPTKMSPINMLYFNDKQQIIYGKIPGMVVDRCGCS

T3: human myostatin (mature, recombinant; R&D Systems) (human, UniProt O14793 267-375)
T3 sequence: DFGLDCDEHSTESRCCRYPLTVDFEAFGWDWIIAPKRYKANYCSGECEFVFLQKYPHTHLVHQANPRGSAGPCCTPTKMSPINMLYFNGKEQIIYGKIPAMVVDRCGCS

B1: 3007_B08 (designed binder)
chain: MGVSDVPRDLEVVAATPTSLLISWSLPTPGLAHYYRITYGETGGNSPVQEFTVPGRGVTATISGLKPGVDYTITVYAVTVTHHGVIGYKPISINYRTEIDKPSQHHHHHH
B2: 2987_C02 (designed binder)
chain: B1 chain with T28Y, P29A, L31H, V80L, H82K, H83S, G84K, V85I, G87H, K89M
B3: 2987_G09 (designed binder)
chain: B1 chain with S25T, T28H, P29A, L31R, T81S, H82S, H83T, G84K, G87V, K89L
B4: 2987_G04 (designed binder)
chain: B1 chain with T28Y, L31H, A32L, H33N, V80L, H82K, H83S, G84K, G87H, K89M
B5: 2987_A06 (designed binder)
chain: B1 chain with T28H, P29A, L31H, V80L, H82K, H83S, G84K, V85I, G87H, K89M
B6: 2987_H02 (designed binder)
chain: B1 chain with T28Y, P29A, L31H, V80L, H82K, H83S, G84K, G87H, K89M
B7: 2987_E08 (designed binder)
chain: B1 chain with S25T, T28H, P29A, L31R, T81S, H82S, H83T, G84K, G87H
B8: 2987_F06 (designed binder)
chain: B1 chain with T28H, P29A, L31H, V80L, H82K, H83S, G84K, G87H, K89M
B9: 2987_F01 (designed binder)
chain: B1 chain with T28Y, P29A, L31H, V80L, H82R, H83S, G84K, V85I, G87H, K89M
B10: 2987_D05 (designed binder)
chain: B1 chain with T28H, P29A, L31H, V80L, H82R, H83S, G84K, V85I, G87H, K89M
B11: 3008_A03 (designed binder)
chain: B1 chain with T28H, P29H, L31F, A32G, H82A, H83T, V85I, G87I
B12: 3008_G03 (designed binder)
chain: B1 chain with T28H, A32G, V80I, H82P, H83E, G84T, V85I, G87V
B13: 3007_C09 (designed binder)
chain: B1 chain with T28H, P29R, L31V, H33N, V80L, H82G, H83A, G84N, G87I
B14: 3008_D04 (designed binder)
chain: B1 chain with T28H, P29N, L31V, H82R, H83E, G84E, G87S
B15: 3007_C10 (designed binder)
chain: B1 chain with T28S, P29S, L31V, H82N, H83T, G87I
B16: 3008_F01 (designed binder)
chain: B1 chain with T28R, P29Q, H33N, H82A, H83A, G87I
B17: 3008_B08 (designed binder)
chain: B1 chain with T28H, P29A, L31D, H82R, H83A, V85F, I86Y, G87R
B18: 3008_G01 (designed binder)
chain: B1 chain with T28G, L31H, A32F, H82A, H83N, G84Q, V85P, G87I
B19: 2987_B04 (designed binder)
chain: MGVSDVPRDLEVVAATPTSLLISWSLPYPGHLNYYRITYGETGGNSPVQEFTVPGRGVTATISGLKPGVDYTITVYAVTLTKSKIIHYMPISINYRTEIDKPSQHHHHHH
B20: 2987_E03 (designed binder)
chain: B19 chain with K82R
B21: 2987_B09 (designed binder)
chain: B19 chain with S25T, Y28H, P29A, H31R, L32A, N33H, K82R
B22: ATI-1340 [N-ethylmaleimide] (designed binder)
chain: MGVSDVPRDLEVVAATPTSLLISWTLPHAGRAHYYRITYGETGGNSPVQEFTVPGRGVTATISGLKPGVDYTITVYAVTVTTTKVIHYKPISINYRTEGSGCHHHHHH
modifications: N-ethylmaleimide on the Cys of the EGSGC tail
notes: cysteine mutant of 2987_H07

The first test concerns the target T1, human Activin A (R&D Systems). The experiment in a line: cell-based or functional assay.
As to B1, the “ARE-luciferase IC50” value stood at 423 nM.

For B2, the “ARE-luciferase IC50” value turned out to be 464 nM.

In the case of B3, the “ARE-luciferase IC50” value is greater than 2000 nM.

Take B4: the “ARE-luciferase IC50” value came to 171 nM.

Consider B5, for which the “ARE-luciferase IC50” value worked out at 283 nM.

Regarding B6, the “ARE-luciferase IC50” value came out at 794 nM.

On to B7, for which the “ARE-luciferase IC50” value is 352 nM.

As for B8, the “ARE-luciferase IC50” value was 538 nM.

For the molecule B9, the “ARE-luciferase IC50” value was found to be 594 nM.

For B10, the “ARE-luciferase IC50” value is 2000 nM.

In the case of B11, the “ARE-luciferase IC50” value was greater than 2000 nM.

B12: the “ARE-luciferase IC50” value is greater than 2000 nM.

Turning to B13, the “ARE-luciferase IC50” value came to 417 nM.

In the case of B14, the “ARE-luciferase IC50” value came out at 720 nM.

On to B15, for which the “ARE-luciferase IC50” value was greater than 2000 nM.

B16: the “ARE-luciferase IC50” value was greater than 2000 nM.

For B17, the “ARE-luciferase IC50” value was determined as 254 nM.

For the molecule B18, the “ARE-luciferase IC50” value was greater than 2000 nM.

Take B19: the “ARE-luciferase IC50” value was 239 nM.

B20: the “ARE-luciferase IC50” value came to 224 nM.

Regarding B21, the “ARE-luciferase IC50” value was 172 nM.

In the case of B22, the “ARE-luciferase IC50” value was found to be 324 nM.

For another test, the target named is T2, human BMP-11 (GDF-11; R&D Systems). The test is described as follows: cell-based or functional assay.
As for B1, the “ARE-luciferase IC50” value was determined as 0.23 nM.

Consider B2, for which the “ARE-luciferase IC50” value was found to be 7.1 nM.

Turning to B3, the “ARE-luciferase IC50” value came to 0.91 nM.

With B4, the “ARE-luciferase IC50” value amounted to 3.3 nM.

B5: the “ARE-luciferase IC50” value was 23 nM.

With B6, the “ARE-luciferase IC50” value amounted to 11 nM.

B7: the “ARE-luciferase IC50” value was 2.8 nM.

As for B8, the “ARE-luciferase IC50” value amounted to 20 nM.

B9: the “ARE-luciferase IC50” value came out at 6.5 nM.

Take B10: the “ARE-luciferase IC50” value amounted to 2.4 nM.

Turning to B11, the “ARE-luciferase IC50” value is 22.6 nM.

With B12, the “ARE-luciferase IC50” value is 1.3 nM.

Take B13: the “ARE-luciferase IC50” value came out at 0.89 nM.

On to B14, for which the “ARE-luciferase IC50” value is 1.2 nM.

B15: the “ARE-luciferase IC50” value was determined as 1 nM.

Turning to B16, the “ARE-luciferase IC50” value is 0.12 nM.

Consider B17, for which the “ARE-luciferase IC50” value was found to be 9.3 nM.

On to B18, for which the “ARE-luciferase IC50” value came to 0.31 nM.

With B19, the “ARE-luciferase IC50” value turned out to be 3.3 nM.

Turning to B20, the “ARE-luciferase IC50” value is 2.3 nM.

B21: the “ARE-luciferase IC50” value was 0.92 nM.

Regarding B22, the “ARE-luciferase IC50” value came out at 4.87 nM.

The next test concerns the target T3, human myostatin (mature, recombinant; …). The experiment in a line: cell-based or functional assay.
With B1, the “ARE-luciferase IC50” value came out at 0.06 nM.

B2: the “ARE-luciferase IC50” value was determined as 0.06 nM.

For the molecule B3, the “ARE-luciferase IC50” value was 0.05 nM.

Turning to B4, the “ARE-luciferase IC50” value was found to be 0.09 nM.

Take B5: the “ARE-luciferase IC50” value was 0.1 nM.

On to B6, for which the “ARE-luciferase IC50” value stood at 0.05 nM.

For the molecule B7, the “ARE-luciferase IC50” value worked out at 0.05 nM.

Consider B8, for which the “ARE-luciferase IC50” value stood at 0.08 nM.

As for B9, the “ARE-luciferase IC50” value amounted to 0.05 nM.

As to B10, the “ARE-luciferase IC50” value stood at 0.11 nM.

Take B11: the “ARE-luciferase IC50” value came to 0.11 nM.

As for B12, the “ARE-luciferase IC50” value amounted to 0.09 nM.

On to B13, for which the “ARE-luciferase IC50” value amounted to 0.04 nM.

As for B14, the “ARE-luciferase IC50” value turned out to be 0.09 nM.

Regarding B15, the “ARE-luciferase IC50” value turned out to be 0.03 nM.

On to B16, for which the “ARE-luciferase IC50” value was found to be 0.08 nM.

In the case of B17, the “ARE-luciferase IC50” value stood at 0.35 nM.

With B18, the “ARE-luciferase IC50” value turned out to be 0.03 nM.

With B19, the “ARE-luciferase IC50” value came to 0.12 nM.

Consider B20, for which the “ARE-luciferase IC50” value came out at 0.1 nM.

Take B21: the “ARE-luciferase IC50” value came to 0.01 nM.

Consider B22, for which the “ARE-luciferase IC50” value was 0.05 nM.

For the next test the target is unchanged. The experiment in a line: competitive HTRF (1889E01/myostatin/ActRIIb-Fc sandwich). From the text:
An HTRF assay was used to measure the binding affinities of anti-myostatin Adnectins to myostatin. […] The Eu-W 1024 labeled Streptavidin is used to bind biotinylated 1889E01. […] In the presence of a competitive Adnectin, the HTRF signal decreases.
Take B1: the IC50 amounted to 0.14 nM.

As to B11, the IC50 turned out to be 0.22 nM.

As for B12, the IC50 worked out at 0.13 nM.

Regarding B13, the IC50 came to 0.14 nM.

In the case of B14, the IC50 stood at 0.14 nM.

Take B15: the IC50 turned out to be 0.14 nM.

For B16, the IC50 came to 0.21 nM.

B17: the IC50 turned out to be 0.37 nM.

Take B18: the IC50 was 0.11 nM.

In the case of B22, the half-maximal inhibitory concentration (IC50) was 0.16 nM.

Another test has the same target. The test is described as follows: cell-based or functional assay. This is another data set of the same source.
B1: the “pSmad2 % inhibition at 10 nM” value stood at 97%.

Take B11: the “pSmad2 % inhibition at 10 nM” value was determined as 87%.

Take B12: the “pSmad2 % inhibition at 10 nM” value came out at 91%.

On to B13, for which the “pSmad2 % inhibition at 10 nM” value was 80%.

Take B14: the “pSmad2 % inhibition at 10 nM” value was 92%.

Take B15: the “pSmad2 % inhibition at 10 nM” value is 76%.

Regarding B16, the “pSmad2 % inhibition at 10 nM” value was determined as 86%.

Take B17: the “pSmad2 % inhibition at 10 nM” value worked out at 90%.

Regarding B18, the “pSmad2 % inhibition at 10 nM” value worked out at 98%.
